# Source: patent US20230374132A1 (Innovent, published 2023)
# What was measured:
# [1] = biological target: T1, human CD3E&G complex (Sino Biological Inc., CT041-H0305H) (human, UniProt P07766 23-126; P09693 23-116); test: BLI, antibody on sensor
# T1 construct: bought heterodimer; also called human CD3E&G antigen
# [2] = biological target: T2, human CD3 E&D complex protein (Sino Biological Inc., CT026H0323H) (human, UniProt P07766 23-126; P04234 22-105); test: BLI, antibody on sensor
# T2 construct: bought heterodimer; also called human CD3 protein (CT026H0323H)
# T2 sequence (P07766 23-126, chain 1 of 2): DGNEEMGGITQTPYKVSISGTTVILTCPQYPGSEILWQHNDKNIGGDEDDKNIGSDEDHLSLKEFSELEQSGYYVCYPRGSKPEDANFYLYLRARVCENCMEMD
# T2 sequence (P04234 22-105, chain 2 of 2): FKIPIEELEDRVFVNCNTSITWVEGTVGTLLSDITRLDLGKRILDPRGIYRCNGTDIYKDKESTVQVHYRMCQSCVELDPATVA
# T1 sequence (P07766 23-126, chain 1 of 2): as the sequence (P07766 23-126, chain 1 of 2) above
# T1 sequence (P09693 23-116, chain 2 of 2): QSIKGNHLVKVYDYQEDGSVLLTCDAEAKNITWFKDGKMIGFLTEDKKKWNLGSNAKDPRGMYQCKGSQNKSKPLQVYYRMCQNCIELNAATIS
Binder,Kd [1],koff [1],kon [1],Kd [2],koff [2],kon [2],binding result [1]
"hzsp34.91 (antibody, human IgG1, lambda, L234A L235A, V domains shown, CDR mutant of hzsp34.24; IgG1 L234A L235A, lambda) VH: EVQLVESGGGLVQPGGSLKLSCAASGFTFNTYAMNWVRQASGKGLEWVGRIRSKYNNYATYYADSVKDRFTISRDDSKSTLYLQMNSLKTEDTAVYYCARHGNFGGSYVSWFAYWGQGTTVTVSS VL: QAVVTQEPSLTVSPGGTVTLTCRSSTGAVTTSNYANWVQQKPGQAPRGLIGGTNKRAPGVPARFSGSLLGDKAALTLLGAQPEDEAEYYCALWYSNLWVFGQGTKLTVLG",8.53 nM,0.00195 s⁻¹,228000 M⁻¹ s⁻¹,1.88 nM,0.000528 s⁻¹,280000 M⁻¹ s⁻¹,–
"hzsp34.92 (antibody, human IgG1, lambda, L234A L235A, V domains shown, CDR mutant of hzsp34.24; IgG1 L234A L235A, lambda) VH: EVQLVESGGGLVQPGGSLKLSCAASGFTFNTYAMNWVRQASGKGLEWVGRIRSKYNNYATYYADSVKDRFTISRDDSKSTLYLQMNSLKTEDTAVYYCARHGNFGQRYVSWFAYWGQGTTVTVSS VL: QAVVTQEPSLTVSPGGTVTLTCRSSTGAVTTSNYANWVQQKPGQAPRGLIGGTNKRAPGVPARFSGSLLGDKAALTLLGAQPEDEAEYYCALWYSNLWVFGQGTKLTVLG",4.82 nM,0.00101 s⁻¹,210000 M⁻¹ s⁻¹,0.772 nM,0.0002 s⁻¹,259000 M⁻¹ s⁻¹,–
"hzsp34.101 (antibody, human IgG1, lambda, L234A L235A, V domains shown, CDR mutant of hzsp34.24; IgG1 L234A L235A, lambda) VH: EVQLVESGGGLVQPGGSLKLSCAASGFTFNTYAMNWVRQASGKGLEWVGRIRSKYNNYATYYADSVKDRFTISRDDSKSTLYLQMNSLKTEDTAVYYCARHGNFGQSAASWFAYWGQGTTVTVSS VL: QAVVTQEPSLTVSPGGTVTLTCRSSTGAVTTSNYANWVQQKPGQAPRGLIGGTNKRAPGVPARFSGSLLGDKAALTLLGAQPEDEAEYYCALWYSNLWVFGQGTKLTVLG",4.3 nM,0.000636 s⁻¹,148000 M⁻¹ s⁻¹,3.77 nM,0.00082 s⁻¹,217000 M⁻¹ s⁻¹,–
"hzsp34.105 (antibody, human IgG1, lambda, L234A L235A, V domains shown, CDR mutant of hzsp34.24; IgG1 L234A L235A, lambda) VH: EVQLVESGGGLVQPGGSLKLSCAASGFTFNTYAMNWVRQASGKGLEWVGRIRSKYNNYATYYADSVKDRFTISRDDSKSTLYLQMNSLKTEDTAVYYCARHGNFGQSYVSWFAYWGQGTTVTVSS VL: QAVVTQEPSLTVSPGGTVTLTCRSSTGAVTTRNYANWVQQKPGQAPRGLIGGTNKRAPGVPARFSGSLLGDKAALTLLGAQPEDEAEYYCALWYSNLWVFGQGTKLTVLG",10.6 nM,0.0021 s⁻¹,199000 M⁻¹ s⁻¹,1.3 nM,0.000307 s⁻¹,235000 M⁻¹ s⁻¹,–
"hzsp34.99 (antibody, human IgG1, lambda, L234A L235A, V domains shown, CDR mutant of hzsp34.24; IgG1 L234A L235A, lambda) VH: EVQLVESGGGLVQPGGSLKLSCAASGFTFNTYAMNWVRQASGKGLEWVGRIRSKYNNYATYYADSVKDRFTISRDDSKSTLYLQMNSLKTEDTAVYYCARHGNAYQSYVSWFAYWGQGTTVTVSS VL: QAVVTQEPSLTVSPGGTVTLTCRSSTGAVTTSNYANWVQQKPGQAPRGLIGGTNKRAPGVPARFSGSLLGDKAALTLLGAQPEDEAEYYCALWYSNLWVFGQGTKLTVLG",–,–,–,9.63 nM,0.0011 s⁻¹,114000 M⁻¹ s⁻¹,no binding
"hzsp34.103 (antibody, human IgG1, lambda, L234A L235A, V domains shown, CDR mutant of hzsp34.24; IgG1 L234A L235A, lambda) VH: EVQLVESGGGLVQPGGSLKLSCAASGFTFNTYAMNWVRQASGKGLEWVGRIRSKYNNYATYYADSVKDRFTISRDDSKSTLYLQMNSLKTEDTAVYYCARHGNFGQSYVSWFAYWGQGTTVTVSS VL: QAVVTQEPSLTVSPGGTVTLTCRSSTGAVGTSNYANWVQQKPGQAPRGLIGGTNKRAPGVPARFSGSLLGDKAALTLLGAQPEDEAEYYCALWYSNLWVFGQGTKLTVLG",7.57 nM,0.00191 s⁻¹,253000 M⁻¹ s⁻¹,1.34 nM,0.000325 s⁻¹,243000 M⁻¹ s⁻¹,–
"hzsp34.94 (antibody, human IgG1, lambda, L234A L235A, V domains shown, CDR mutant of hzsp34.24; IgG1 L234A L235A, lambda) VH: EVQLVESGGGLVQPGGSLKLSCAASGFTFNTYAMNWVRQASGKGLEWVGRIRSKYNNYATYYADSVKDRFTISRDDSKSTLYLQMNSLKTEDTAVYYCARHGNFGQSYASWFAYWGQGTTVTVSS VL: QAVVTQEPSLTVSPGGTVTLTCRSSTGAVTTSNYANWVQQKPGQAPRGLIGGTNKRAPGVPARFSGSLLGDKAALTLLGAQPEDEAEYYCALWYSNLWVFGQGTKLTVLG",4.63 nM,0.000821 s⁻¹,177000 M⁻¹ s⁻¹,0.977 nM,0.0002 s⁻¹,205000 M⁻¹ s⁻¹,–
"hzsp34.102 (antibody, human IgG1, lambda, L234A L235A, V domains shown, CDR mutant of hzsp34.24; IgG1 L234A L235A, lambda) VH: EVQLVESGGGLVQPGGSLKLSCAASGFTFNTYAMNWVRQASGKGLEWVGRIRSKYNNYATYYADSVKDRFTISRDDSKSTLYLQMNSLKTEDTAVYYCARHGNFGQSYVSWFAYWGQGTTVTVSS VL: QAVVTQEPSLTVSPGGTVTLTCGSSTGAVTTSNYANWVQQKPGQAPRGLIGGTNKRAPGVPARFSGSLLGDKAALTLLGAQPEDEAEYYCALWYSNLWVFGQGTKLTVLG",8.52 nM,0.0019 s⁻¹,222000 M⁻¹ s⁻¹,1.69 nM,0.000423 s⁻¹,250000 M⁻¹ s⁻¹,–
"hzsp34.100 (antibody, human IgG1, lambda, L234A L235A, V domains shown, CDR mutant of hzsp34.24; IgG1 L234A L235A, lambda) VH: EVQLVESGGGLVQPGGSLKLSCAASGFTFNTYAMNWVRQASGKGLEWVGRIRSKYNNYATYYADSVKDRFTISRDDSKSTLYLQMNSLKTEDTAVYYCARHGNFGGRYVSWFAYWGQGTTVTVSS VL: QAVVTQEPSLTVSPGGTVTLTCRSSTGAVTTSNYANWVQQKPGQAPRGLIGGTNKRAPGVPARFSGSLLGDKAALTLLGAQPEDEAEYYCALWYSNLWVFGQGTKLTVLG",8.33 nM,0.00171 s⁻¹,205000 M⁻¹ s⁻¹,1.13 nM,0.000276 s⁻¹,243000 M⁻¹ s⁻¹,–
"hzsp34.98 (antibody, human IgG1, lambda, L234A L235A, V domains shown, CDR mutant of hzsp34.24; IgG1 L234A L235A, lambda) VH: EVQLVESGGGLVQPGGSLKLSCAASGFTFNTYAMNWVRQASGKGLEWVGRIRSKYNNYATYYADSVKDRFTISRDDSKSTLYLQMNSLKTEDTAVYYCARHYGFGQSYVSWFAYWGQGTTVTVSS VL: QAVVTQEPSLTVSPGGTVTLTCRSSTGAVTTSNYANWVQQKPGQAPRGLIGGTNKRAPGVPARFSGSLLGDKAALTLLGAQPEDEAEYYCALWYSNLWVFGQGTKLTVLG",–,–,–,9.15 nM,0.00184 s⁻¹,201000 M⁻¹ s⁻¹,no binding
"hzsp34.93 (antibody, human IgG1, lambda, L234A L235A, V domains shown, CDR mutant of hzsp34.24; IgG1 L234A L235A, lambda) VH: EVQLVESGGGLVQPGGSLKLSCAASGFTFNTYAMNWVRQASGKGLEWVGRIRSKYNNYATYYADSVKDRFTISRDDSKSTLYLQMNSLKTEDTAVYYCARHGNFGQSAVSWFAYWGQGTTVTVSS VL: QAVVTQEPSLTVSPGGTVTLTCRSSTGAVTTSNYANWVQQKPGQAPRGLIGGTNKRAPGVPARFSGSLLGDKAALTLLGAQPEDEAEYYCALWYSNLWVFGQGTKLTVLG",3.42 nM,0.000836 s⁻¹,245000 M⁻¹ s⁻¹,0.976 nM,0.00026 s⁻¹,266000 M⁻¹ s⁻¹,–
"hzsp34.104 (antibody, human IgG1, lambda, L234A L235A, V domains shown, CDR mutant of hzsp34.24; IgG1 L234A L235A, lambda) VH: EVQLVESGGGLVQPGGSLKLSCAASGFTFNTYAMNWVRQASGKGLEWVGRIRSKYNNYATYYADSVKDRFTISRDDSKSTLYLQMNSLKTEDTAVYYCARHGNFGQSYVSWFAYWGQGTTVTVSS VL: QAVVTQEPSLTVSPGGTVTLTCRSSTGAVTGSNYANWVQQKPGQAPRGLIGGTNKRAPGVPARFSGSLLGDKAALTLLGAQPEDEAEYYCALWYSNLWVFGQGTKLTVLG",8.54 nM,0.00198 s⁻¹,231000 M⁻¹ s⁻¹,1.93 nM,0.000542 s⁻¹,281000 M⁻¹ s⁻¹,–
